In assay [1] the target is T1, human pIgR extracellular domain (ECD) (human, UniProt P01833 19-638).
T1 construct: Bought from R&D Systems (Cat 2717-PG-050); also called hpIgR ECD
Description: SPR, VHH captured by anti-Fc, ECD analyte. On the procedure: (§1) In an assay, two flow cells of the SPR were used, in which the flow cell 1 ran the buffer reference, and the flow cell 2 ran the analyte. […] The HBSP (GE) buffer was followed at a flow rate of 30 μL/min. Then, the VHHs were captured on the anti-human Fc protein surface at 0.5 ug/ml (˜200-300 RU) on the flow cell 2. The running buffer was changed to HBSP with 100 ug/ml BSA after the capture. Next, the pIgR extracellular domains were used as analyte and loaded in a series of concentrations, starting at 30 nM with further 3-fold dilution series.
(§2) The extracellular domains were prepared as follows: cynomolgus monkey and rat extracellular domains were produced and characterized in house; mouse and human pIgR extracellular domains were purchased from R&D Systems (Cat #2800-PG-050 & 2717-PG-050 respectively). The pIgR extracellular domains were injected from low to high concentration using a single-cycle kinetics method. The off-rate was monitored at 30 minutes after the last or highest concentration injection. The reference run was completed under the same conditions except that the pIgR injection was replaced by buffer injection.
(§3) The raw data were processed by subtracting two sets of reference data from the response data: (1) reference flow cell 1 subtracted from sample flow cell 2; and (2) buffer blank run subtracted from experimental run. The processed data at all concentrations for each VHH were globally fit to a 1:1 simple Langmuir binding model to extract estimates of the kinetic constants (kₒₙ, koff) and affinity constants (KD).

Assay [2] has as its target T2, cynomolgus monkey pIgR extracellular domain (cynomolgus monkey, UniProt A0A2K5WMU9 19-638).
T2 construct: extracellular domain
Nature of the assay: SPR, VHH captured by anti-Fc, ECD analyte. On the procedure:
as §1, §2, §3

T2 sequence (A0A2K5WMU9 entry or part of it): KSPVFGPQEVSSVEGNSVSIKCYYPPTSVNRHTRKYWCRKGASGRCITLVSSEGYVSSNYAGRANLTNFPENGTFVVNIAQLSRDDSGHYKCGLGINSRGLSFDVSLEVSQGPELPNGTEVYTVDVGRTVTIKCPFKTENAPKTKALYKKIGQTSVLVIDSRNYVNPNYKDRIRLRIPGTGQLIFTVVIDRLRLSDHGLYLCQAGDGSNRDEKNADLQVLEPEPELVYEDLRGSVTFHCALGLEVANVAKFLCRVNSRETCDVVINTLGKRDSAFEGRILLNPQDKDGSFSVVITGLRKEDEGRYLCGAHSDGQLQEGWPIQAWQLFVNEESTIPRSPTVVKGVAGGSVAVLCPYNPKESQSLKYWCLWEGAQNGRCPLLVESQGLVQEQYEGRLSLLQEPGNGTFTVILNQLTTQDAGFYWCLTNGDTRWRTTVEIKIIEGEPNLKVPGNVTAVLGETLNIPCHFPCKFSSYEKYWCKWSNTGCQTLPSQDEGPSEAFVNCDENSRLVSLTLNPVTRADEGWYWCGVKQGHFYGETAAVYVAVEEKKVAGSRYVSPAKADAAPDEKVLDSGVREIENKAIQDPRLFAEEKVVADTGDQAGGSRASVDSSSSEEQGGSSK
T1 sequence (P01833 other isoform, or with tags, fused parts or gaps): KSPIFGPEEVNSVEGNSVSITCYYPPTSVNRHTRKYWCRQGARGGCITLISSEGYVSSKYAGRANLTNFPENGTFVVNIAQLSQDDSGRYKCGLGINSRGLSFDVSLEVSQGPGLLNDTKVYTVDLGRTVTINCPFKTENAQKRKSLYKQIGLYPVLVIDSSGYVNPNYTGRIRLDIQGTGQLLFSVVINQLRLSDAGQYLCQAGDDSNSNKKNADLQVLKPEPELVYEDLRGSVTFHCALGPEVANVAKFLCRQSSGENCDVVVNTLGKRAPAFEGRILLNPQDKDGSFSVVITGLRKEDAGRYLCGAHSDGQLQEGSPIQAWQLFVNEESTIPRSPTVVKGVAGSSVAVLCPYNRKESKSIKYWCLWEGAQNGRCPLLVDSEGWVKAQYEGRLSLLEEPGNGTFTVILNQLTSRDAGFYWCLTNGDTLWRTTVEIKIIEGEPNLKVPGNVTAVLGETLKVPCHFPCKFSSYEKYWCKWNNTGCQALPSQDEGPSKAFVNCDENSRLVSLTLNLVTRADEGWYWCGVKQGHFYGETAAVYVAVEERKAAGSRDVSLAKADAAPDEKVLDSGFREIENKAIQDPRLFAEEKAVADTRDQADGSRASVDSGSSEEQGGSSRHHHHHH

B1: 02G03R3 VHH Mono-Fc (Fc fusion)
chain: EVQLVESGGGLVQAGGSLRLSCAASGMPDNIFSIKTMGWYRQAPGKERELVAAITSGGSTNYGDSVKDRFTISRDRIENTVNLEMNNLKPEDTAVYTCHADLTYIRFQDMEYWGKGTQVTVSSSPAPELLGGPSVFLFPPKPKDTLMISRTPEVTCVVVDVSHEDPEVKFNWYVDGVEVHNAKTKPREEQYNSTYRVVSVLTVLHQDWLNGKEYKCKVSNKALPAPIEKTISKAKGQPREPQVYTKPPSREEMTKNQVSLSCLVKGFYPSDIAVEWESNGQPENNYKTTVPVLDSDGSFRLASYLTVDKSRWQQGNVFSCSVMHEALHNHYTQKSLSLSPGK
Take B1: the equilibrium dissociation constant (Kd) in assay [1] is 1.48 nM; in assay [2], 3.99 nM.

B2: 01E10R3 VHH Mono-Fc (Fc fusion)
chain: QVQLVESGGGLVQSGGSLRLSCAASGRTFSDYAMGWFRQAPGKERELVAAITWNGGSTYYADSVKGRFTISRDNAKNTVDLQMNSLKPEDTAVYYCAADPLNSDSAGTYDYWGQGTLVTVSSSPAPELLGGPSVFLFPPKPKDTLMISRTPEVTCVVVDVSHEDPEVKFNWYVDGVEVHNAKTKPREEQYNSTYRVVSVLTVLHQDWLNGKEYKCKVSNKALPAPIEKTISKAKGQPREPQVYTKPPSREEMTKNQVSLSCLVKGFYPSDIAVEWESNGQPENNYKTTVPVLDSDGSFRLASYLTVDKSRWQQGNVFSCSVMHEALHNHYTQKSLSLSPGK
For B2, the Kd in assay [1] worked out at 1.39 nM; in assay [2], 23.2 nM.

B3: 01B05R2 VHH Mono-Fc (Fc fusion)
chain: EVQLVESGGGLVQAGGSLRLSCAASGRSLSFDTYAMGWFRQAPGKEREFVASIDWNGGSTYYADSVKGRFTISRDNARNTVNLRMNSLKPDDTAVYYCAAARYYTSGTYFPANYWGQGTQVTVSSSPAPELLGGPSVFLFPPKPKDTLMISRTPEVTCVVVDVSHEDPEVKFNWYVDGVEVHNAKTKPREEQYNSTYRVVSVLTVLHQDWLNGKEYKCKVSNKALPAPIEKTISKAKGQPREPQVYTKPPSREEMTKNQVSLSCLVKGFYPSDIAVEWESNGQPENNYKTTVPVLDSDGSFRLASYLTVDKSRWQQGNVFSCSVMHEALHNHYTQKSLSLSPGK
As for B3, the Kd in assay [1] was determined as 3.55 nM; in assay [2], 177 nM.

B4: 03C10R3 VHH Mono-Fc (Fc fusion)
chain: QVQLVESGGGLVQRGGSLRLSCAASGRSLGFDTYAMGWFRQAPGKEREFVASIDWNGGNTYYADSVKGRFTISRDNAKNTVNLRMNSLKPDDTAAYYCAAARYYTSGTYFPANYWGRGTLVTVSSSPAPELLGGPSVFLFPPKPKDTLMISRTPEVTCVVVDVSHEDPEVKFNWYVDGVEVHNAKTKPREEQYNSTYRVVSVLTVLHQDWLNGKEYKCKVSNKALPAPIEKTISKAKGQPREPQVYTKPPSREEMTKNQVSLSCLVKGFYPSDIAVEWESNGQPENNYKTTVPVLDSDGSFRLASYLTVDKSRWQQGNVFSCSVMHEALHNHYTQKSLSLSPGK
In the case of B4, the results for the Kd in assay [1] and in assay [2] were 1.67 nM and 17.5 nM, respectively.

B5: 01H05R3 VHH Mono-Fc (Fc fusion)
chain: QVQLVESGGGLVQAGGSLRLSCAASGRSLGFDTYGMAWFRQAPGKEREFVASIDWNGGSTYYADSMKGRFTISRDNAKNTVNLRMNSLKPDDTAVYYCAAARYYTSSTYFPANYWGQGTQVTVSSSPAPELLGGPSVFLFPPKPKDTLMISRTPEVTCVVVDVSHEDPEVKFNWYVDGVEVHNAKTKPREEQYNSTYRVVSVLTVLHQDWLNGKEYKCKVSNKALPAPIEKTISKAKGQPREPQVYTKPPSREEMTKNQVSLSCLVKGFYPSDIAVEWESNGQPENNYKTTVPVLDSDGSFRLASYLTVDKSRWQQGNVFSCSVMHEALHNHYTQKSLSLSPGK
For the molecule B5, the results for the Kd in assay [1] and in assay [2] were 7.54 nM and 406 nM, respectively.

B6: 03H05R3 VHH Mono-Fc (Fc fusion)
chain: QVQLVESGGGLVQAGGSLSLSCAASGRSLSFDTYAMSWFRQAPGKEREFVASIDWNGGSTSYADSMKGRFTISRDNAKNTVNLRIRSLKPDDTAVYFCASARYYIGGTYFPANYWGQGTQVTVSSSPAPELLGGPSVFLFPPKPKDTLMISRTPEVTCVVVDVSHEDPEVKFNWYVDGVEVHNAKTKPREEQYNSTYRVVSVLTVLHQDWLNGKEYKCKVSNKALPAPIEKTISKAKGQPREPQVYTKPPSREEMTKNQVSLSCLVKGFYPSDIAVEWESNGQPENNYKTTVPVLDSDGSFRLASYLTVDKSRWQQGNVFSCSVMHEALHNHYTQKSLSLSPGK
Take B6: the Kd was 2.93 nM in assay [1] and 108 nM in assay [2].

B7: 03G05R3 VHH Mono-Fc (Fc fusion)
chain: EVQLVESGGGLVQAGDSLRLSCAASGRALSFNTYAMAWFRQAPGKEREFVASITYNGGSTYYADSVKGRFTVTRDNGKNTVTLRMNSLKPDDTAVYYCASAQYWRSGTSFPANYWGQGTQVTVSSSPAPELLGGPSVFLFPPKPKDTLMISRTPEVTCVVVDVSHEDPEVKFNWYVDGVEVHNAKTKPREEQYNSTYRVVSVLTVLHQDWLNGKEYKCKVSNKALPAPIEKTISKAKGQPREPQVYTKPPSREEMTKNQVSLSCLVKGFYPSDIAVEWESNGQPENNYKTTVPVLDSDGSFRLASYLTVDKSRWQQGNVFSCSVMHEALHNHYTQKSLSLSPGK
B7: the Kd in assay [1] is 3.7 nM; in assay [2] it was 30.1 nM.

B8: 01F04R3 VHH Mono-Fc (Fc fusion)
chain: QVQLVESGGGLVQAGDSLRLSCAASGRALSFNTYAMAWFRQAPGKEREFVASITYNGGSTYYADSVRGRFTVTRDSGKNTVTLRMNSLKPDDTAVYYCASAQYWRSGTSFPANYWGQGTLVTVSSSPAPELLGGPSVFLFPPKPKDTLMISRTPEVTCVVVDVSHEDPEVKFNWYVDGVEVHNAKTKPREEQYNSTYRVVSVLTVLHQDWLNGKEYKCKVSNKALPAPIEKTISKAKGQPREPQVYTKPPSREEMTKNQVSLSCLVKGFYPSDIAVEWESNGQPENNYKTTVPVLDSDGSFRLASYLTVDKSRWQQGNVFSCSVMHEALHNHYTQKSLSLSPGK
For B8, the dissociation constant Kd is 5.92 nM in assay [1] and 30.9 nM in assay [2].

B9: 01D06R2 VHH Mono-Fc (Fc fusion)
chain: QVQLVESGGGLVQAGDSLRLSCAASGRTLSFDTYAMAWFRQAPGKEREFVASIDWNGVNTYYADSVKGRFTVTRDNTKNTVTLRMNSLKTDDTAVYYCAAAQYYRSGTSFPANSWGQGTQVTVSSSPAPELLGGPSVFLFPPKPKDTLMISRTPEVTCVVVDVSHEDPEVKFNWYVDGVEVHNAKTKPREEQYNSTYRVVSVLTVLHQDWLNGKEYKCKVSNKALPAPIEKTISKAKGQPREPQVYTKPPSREEMTKNQVSLSCLVKGFYPSDIAVEWESNGQPENNYKTTVPVLDSDGSFRLASYLTVDKSRWQQGNVFSCSVMHEALHNHYTQKSLSLSPGK
Regarding B9, the Kd in assay [1] was 1.44 nM; in assay [2] it was 14.4 nM.

B10: 01C04R3 VHH Mono-Fc (Fc fusion)
chain: QVQLVESGGGLVQAGDSLRLSCAASGRALSFNTYAMAWFRQAPGKEREFVASITYNGGSTYYADSVKGRFTVTRDNGKDTVTLRMNSLKPDDTAVYYCASAQYWRSGTSFPANYWGQGTLVTVSSSPAPELLGGPSVFLFPPKPKDTLMISRTPEVTCVVVDVSHEDPEVKFNWYVDGVEVHNAKTKPREEQYNSTYRVVSVLTVLHQDWLNGKEYKCKVSNKALPAPIEKTISKAKGQPREPQVYTKPPSREEMTKNQVSLSCLVKGFYPSDIAVEWESNGQPENNYKTTVPVLDSDGSFRLASYLTVDKSRWQQGNVFSCSVMHEALHNHYTQKSLSLSPGK
For B10, the Kd in assay [1] is 3.09 nM; in assay [2] it was 46.3 nM.
